The record followed here is paper PMC3796201 (Nature structural & molecular biology, 2013).

For the assay, the target named is CRM1 (human, recombinant, His-tagged) (human, UniProt O14980 1-1071). The assay is described as follows: pull-down.
Chain of CRM1 (human, recombinant, His-tagged) (O14980 whole entry): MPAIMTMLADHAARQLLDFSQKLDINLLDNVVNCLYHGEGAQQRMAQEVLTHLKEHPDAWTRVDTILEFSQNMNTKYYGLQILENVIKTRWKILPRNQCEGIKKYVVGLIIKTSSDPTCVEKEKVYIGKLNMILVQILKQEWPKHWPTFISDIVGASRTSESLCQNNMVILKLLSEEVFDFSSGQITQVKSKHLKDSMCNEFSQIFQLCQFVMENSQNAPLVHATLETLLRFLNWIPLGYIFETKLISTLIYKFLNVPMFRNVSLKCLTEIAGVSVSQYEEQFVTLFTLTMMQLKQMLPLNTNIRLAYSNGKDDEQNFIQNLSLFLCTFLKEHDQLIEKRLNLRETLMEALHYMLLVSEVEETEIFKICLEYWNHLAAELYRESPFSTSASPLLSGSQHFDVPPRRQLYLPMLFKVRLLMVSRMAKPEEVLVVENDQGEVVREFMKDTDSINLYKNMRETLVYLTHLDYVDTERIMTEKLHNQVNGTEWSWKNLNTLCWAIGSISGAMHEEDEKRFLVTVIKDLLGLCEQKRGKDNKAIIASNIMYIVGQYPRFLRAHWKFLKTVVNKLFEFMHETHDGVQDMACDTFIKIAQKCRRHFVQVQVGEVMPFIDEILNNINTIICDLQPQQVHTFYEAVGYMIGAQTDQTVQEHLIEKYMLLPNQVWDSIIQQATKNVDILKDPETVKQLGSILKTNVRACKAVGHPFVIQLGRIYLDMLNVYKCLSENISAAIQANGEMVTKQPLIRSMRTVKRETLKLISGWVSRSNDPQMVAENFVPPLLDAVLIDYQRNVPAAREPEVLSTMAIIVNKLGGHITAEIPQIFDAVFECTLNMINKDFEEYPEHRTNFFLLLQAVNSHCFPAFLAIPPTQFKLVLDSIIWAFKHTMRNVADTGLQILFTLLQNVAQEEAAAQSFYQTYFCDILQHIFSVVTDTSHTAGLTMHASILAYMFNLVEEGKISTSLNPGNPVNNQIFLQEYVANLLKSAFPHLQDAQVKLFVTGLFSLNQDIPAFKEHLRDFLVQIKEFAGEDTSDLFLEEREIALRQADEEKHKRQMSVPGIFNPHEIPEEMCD

B1: GST-RAD51 F86E (natural protein, human, UniProt Q06609 1-339, looked up)
chain: MAMQMQLEANADTSVEEESFGPQPISRLEQCGINANDVKKLEEAGFHTVEAVAYAPKKELINIKGISEAKADKILAEAAKLVPMGETTATEFHQRRSEIIQITTGSKELDKLLQGGIETGSITEMFGEFRTGKTQICHTLAVTCQLPIDRGGGEGKAMYIDTEGTFRPERLLAVAERYGLSGSDVLDNVAYARAFNTDHQTQLLYQASAMMVESRYALLIVDSATALYRTDYSGRGELSARQMHLARFLRMLLRLADEFGVAVVITNQVVAQVDGAAMFAADPKKPIGGNIIAHASTTRLYLRKGRGETRICKIYDSPCLPEAEAMFAINADGVGDAKD
In the case of B1, the binding result is “binds”.
